Results reported in ChEMBL document CHEMBL4196070, “Development of Piperazinediones as dual inhibitor for treatment of Alzheimer's disease” (Eur J Med Chem, 2018).

Experiments:
[1] = compound: O=C1C(Cc2ccccc2)N(S(=O)(=O)c2ccc(Cl)cc2)C(=O)C(Cc2ccccc2)N1S(=O)(=O)c1ccc(Cl)cc1; assay: (§1) Competitive inhibition of human MMP2 assessed as Vmax for substrate at 60 nM preincubated for 60 mins followed by Mca-Pro-Leu-Gly-Leu-Dpa-Ala-Arg-NH substrate addition by Lineweaver-Burk plot analysis (reference value: 3.4 to 3.6 nM/min)
[2] = compound: O=C1C(c2ccccc2)N(S(=O)(=O)c2ccc(Cl)cc2)C(=O)C(c2ccccc2)N1S(=O)(=O)c1ccc(Cl)cc1; assay: as §1
[3] = compound: O=C1C(Cc2ccccc2)N(S(=O)(=O)c2ccc(Cl)cc2)C(=O)C(Cc2ccccc2)N1S(=O)(=O)c1ccc(Cl)cc1; assay: (§2) Competitive inhibition of human MMP2 assessed as Km for substrate at 100 nM preincubated for 60 mins followed by Mca-Pro-Leu-Gly-Leu-Dpa-Ala-Arg-NH substrate addition by Lineweaver-Burk plot analysis (reference value: 10 to 25 nM)
[4] = compound: O=C1C(c2ccccc2)N(S(=O)(=O)c2ccc(Cl)cc2)C(=O)C(c2ccccc2)N1S(=O)(=O)c1ccc(Cl)cc1; assay: as §2
[5] = compound: O=C1C(Cc2ccccc2)N(S(=O)(=O)c2ccc(Cl)cc2)C(=O)C(Cc2ccccc2)N1S(=O)(=O)c1ccc(Cl)cc1; assay: (§3) Competitive inhibition of human MMP2 assessed as Vmax for substrate at 100 nM preincubated for 60 mins followed by Mca-Pro-Leu-Gly-Leu-Dpa-Ala-Arg-NH substrate addition by Lineweaver-Burk plot analysis (reference value: 3.4 to 3.6 nM/min)
[6] = compound: O=C1C(c2ccccc2)N(S(=O)(=O)c2ccc(Cl)cc2)C(=O)C(c2ccccc2)N1S(=O)(=O)c1ccc(Cl)cc1; assay: as §3
[7] = compound: O=C1C(Cc2ccccc2)N(S(=O)(=O)c2ccc(Cl)cc2)C(=O)C(Cc2ccccc2)N1S(=O)(=O)c1ccc(Cl)cc1; assay: (§4) Competitive inhibition of human MMP2 assessed as Km for substrate at 60 nM preincubated for 60 mins followed by Mca-Pro-Leu-Gly-Leu-Dpa-Ala-Arg-NH substrate addition by Lineweaver-Burk plot analysis (reference value: 10 to 25 nM)
[8] = compound: O=C1C(c2ccccc2)N(S(=O)(=O)c2ccc(Cl)cc2)C(=O)C(c2ccccc2)N1S(=O)(=O)c1ccc(Cl)cc1; assay: as §4

B1: 72 kDa type IV collagenase (Homo sapiens), P08253 (protein)
chain: MEALMARGALTGPLRALCLLGCLLSHAAAAPSPIIKFPGDVAPKTDKELAVQYLNTFYGCPKESCNLFVLKDTLKKMQKFFGLPQTGDLDQNTIETMRKPRCGNPDVANYNFFPRKPKWDKNQITYRIIGYTPDLDPETVDDAFARAFQVWSDVTPLRFSRIHDGEADIMINFGRWEHGDGYPFDGKDGLLAHAFAPGTGVGGDSHFDDDELWTLGEGQVVRVKYGNADGEYCKFPFLFNGKEYNSCTDTGRSDGFLWCSTTYNFEKDGKYGFCPHEALFTMGGNAEGQPCKFPFRFQGTSYDSCTTEGRTDGYRWCGTTEDYDRDKKYGFCPETAMSTVGGNSEGAPCVFPFTFLGNKYESCTSAGRSDGKMWCATTANYDDDRKWGFCPDQGYSLFLVAAHEFGHAMGLEHSQDPGALMAPIYTYTKNFRLSQDDIKGIQELYGASPDIDLGTGPTPTLGPVTPEICKQDIVFDGIAQIRGEIFFFKDRFIWRTVTPRDKPMGPLLVATFWPELPEKIDAVYEAPQEEKAVFFAGNEYWIYSASTLERGYPKPLTSLGLPPDVQRVDAAFNWSKNKKTYIFAGDKFWRYNEVKKKMDPGFPKLIADAWNAIPDNLDAVVDLQGGGHSYFFKGAYYLKLENQSLKSVKFGSIKSDWLGC
[1]
  Vmax: 3.6 nM/min
[2]
  Vmax: 3.4 nM/min
[3]
  Km: 0.048 µM
[4]
  Km: 0.07 µM
[5]
  Vmax: 3.6 nM/min
[6]
  Vmax: 3.4 nM/min
[7]
  Km: 0.024 µM
[8]
  Km: 0.036 µM
